Data taken from the supplement of paper PMC10567573.

B1: KRT34 (parent)
chain: YQSYFKTIEELQQKILCAKAENAR
B2: RBBP5 (parent)
chain: TGTSNTTAIKSIEFARKGSCFLIN

Variants of: B1
Test: protein stability index of a GFP-peptide fusion (GPS, HEK-293T) (PSI 1-6); higher = more stable
Details: c terminus: a fixed tail appended
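Note: lentivirally expressed fusions sorted by FACS into six bins by GFP to DsRed ratio, PSI derived from sequencing read proportions per bin multiplied by bin number.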

Variant	protein stability index
Y1K	2.88
Y1H	2.56
Y1T	3.08
Y1D	4.17
Y1I	1.52
Y1P	3.59
Y1G	3.95
Y1V	2.27
Y1C	2.23
Y1R	2.94
Y1F	1.96
Y1L	1.55
Y1A	3.3
Y1N	3.45
Y1Q	3.45
Y1S	2.93
Y1E	4.59
Y1M	2.1
Y4C	1.73
Y4G	3.06
Y4H	2.4
Y4A	2.2
Y4S	2
Y4D	2.24

Variant	protein stability index
Y4N	2.21
Y4T	2.98
Y4I	2.27
Y4V	1.57
Y4R	2.14
Y4K	1.52
Y4F	1.86
Y4P	2.19
Y4Q	2.65
Y4E	1.63
Y4L	1.93
Y4M	1.48
Q2A	2.1
Q2P	2.26
Q2C	1.88
Q2F	2.53
Q2S	2.5
Q2N	2.28
Q2H	3.43
Q2G	2.12
Q2W	2.39
Q2T	1.59
Q2E	3.07
Q2K	2.54

Variant	protein stability index
Q2R	2.25
Q2V	1.54
Q2L	1.9
Q2M	2.14
Q2D	2.13
Q2I	1.57
Q2Y	2.04
T7A	2.2
T7V	1.72
T7M	1.67
T7Q	2.07
T7R	1.86
T7E	2.58
T7H	2.35
T7D	2.44
T7K	1.58
T7I	1.84
T7N	2.34
T7Y	2.24
T7L	1.64
T7G	1.96
T7P	1.77
T7F	1.81
T7S	3.16

Variant	protein stability index
T7C	1.64
K6I	1.91
K6Q	2.53
K6G	2.09
K6D	2.01
K6E	1.85
K6L	2.3
K6V	2.83
K6R	1.82
K6S	1.74
K6C	1.51
K6W	2.18
K6A	1.96
K6P	1.81
K6M	2.1
K6H	2.24
K6Y	1.66
K6T	2.67
I8A	2.26
I8H	1.62
I8P	2.24
I8C	1.57
I8K	2.47
I8G	1.48

Variant	protein stability index
I8R	2.09
I8D	2.59
I8M	2.26
I8F	2.23
I8E	2.6
I8Q	1.37
I8L	1.98
F5C	2.24
F5I	1.94
F5L	1.81
F5N	3.02
F5W	1.32
F5P	1.89
F5Y	1.62
F5H	2.34
F5K	2.84
F5R	1.6
F5S	2.73
F5E	4.08
F5V	1.9
F5Q	2.53
F5D	3.68
F5A	2.01
F5G	3.23

Variant	protein stability index
F5T	2.12
F5M	2.62
S3I	1.61
S3D	1.98
S3G	1.85
S3V	1.62
S3Q	2.3
S3M	1.77
S3N	2.23
S3H	1.5
S3T	1.61
S3Y	2.13
S3P	1.97
S3L	1.77
S3F	1.8
S3R	1.79
S3E	1.67
S3K	1.96
S3C	1.96
S3A	2.69
S3W	1.54

Variants of: B2
Test: as above
Details: c terminus: a fixed tail appended

Variant	protein stability index
K17H	2.33
K17S	2.47
K17T	2.46
K17G	2.24
K17I	1.29
K17V	1.7
R16Y	2.49
R16D	2.7
R16L	3.26
R16W	1.74
R16P	2.34
R16E	3
R16F	2.26
R16N	3.21
R16I	3.29
R16K	2.76
L22N	3.09
L22A	2.33
L22S	3.05
L22W	1.71
L22Y	2.54
L22K	3.21
N5F	2.2
N5D	2.35
N5V	2.38

Variant	protein stability index
N5G	2.12
N5R	2.36
N5S	2.02
N5T	2.09
N5H	2.12
S11N	2.92
S11Q	2.74
S11D	2.6
S11F	2.45
S11M	2.09
S11C	1.74
S11P	2.61
S11Y	1.32
T7N	2.14
T7E	2.51
T7L	1.77
T7V	1.96
T7A	2.85
T7K	2.04
T7Q	2.66
T7M	1.95
T7W	1.95
E13W	2.23
E13I	2.89
E13M	2.15

Variant	protein stability index
E13D	2.32
E13H	2.4
E13L	2.38
E13T	2.31
G18E	2.62
G18L	2.35
G18Q	2.28
G18W	1.62
G18K	2.3
G18C	1.63
G18T	1.71
G18I	2.2
G18R	2.15
T1Q	2.79
T1P	2.47
T1I	1.79
T1H	2.59
T1E	3.07
T1Y	1.79
T1L	2.11
T1V	1.87
T1R	2.75
I23M	2.49
I23C	2.36
I23S	3.1

Variant	protein stability index
I23N	2.99
I23D	3.02
I23H	2.79
I23L	2.05
I23W	2.36
I23F	1.98
I23Y	2.58
I23R	3.03
I23V	2.62
S19Q	2.24
S19A	1.62
S19H	2.04
S19F	1.61
S19N	2.17
S19T	1.79
S19Y	1.26
S19G	1.93
S19I	2.75
C20G	2.49
C20D	2.6
C20P	2.74
C20W	1.63
C20N	3.03
C20T	2.56
C20V	2.09

Variant	protein stability index
C20Y	2.12
C20S	2.59
C20K	2.58
K10G	2.19
K10L	2.74
K10I	2.15
K10A	1.64
K10H	2.77
K10S	2.93
K10M	1.94
K10N	1.86
I9C	2.28
I9R	2.34
I9W	1.5
I9L	2.03
I9F	1.98
I9N	2.44
I9E	2.91
I9T	2.92
I9A	2.48
I9D	2.86
G2C	2.17
G2L	2.18
G2R	2.07
G2T	2.14

Variant	protein stability index
G2Q	2.47
G2M	2.48
G2Y	3.22
G2P	2.63
T6L	2.16
T6V	1.87
T6H	2.67
T6P	2.29
T6Y	1.87
T6G	1.98
T6A	2.87
T6F	2.09
A8F	1.81
A8I	1.74
A8T	2.68
A8D	2.36
A8P	2.69
A8L	2.17
A8C	2.71
A8R	1.62
A8G	2.84
T3P	2.46
T3C	1.98
T3L	2.17
T3I	1.83

Variant	protein stability index
T3W	2.02
T3Y	1.94
F14L	2.51
F14A	3.06
F14R	3.05
F14W	2.07
F21C	2.44
F21W	2.25
F21M	3.52
F21H	2.86
N24A	1.89
N24K	2.02
N24H	2.35
N24W	2.71
N24P	3.12
N24Y	1.96
N24M	2.16
N24L	2.22
N24R	2.09
A15Q	2.51
A15T	1.79
A15H	2.39
A15K	2.42
A15R	2.22
A15N	2.67

Variant	protein stability index
A15S	2.09
A15G	2.38
A15V	1.66
I12S	2.67
I12G	2.4
I12R	2.57
I12F	2
I12N	2.67
I12A	2.94
I12M	2.61
I12D	2.79
I12L	1.78
I12P	3
I12Q	3.29
S4W	1.83
S4Y	2.41
S4L	2.17
S4I	2.52
